Assay results reported in patent US20210261685A1 (Alector, published 2021).

T1: human MerTK endogenously expressed on cells (SK-MEL-5 cells; human macrophages) (human, UniProt Q12866 21-999)
T1 construct: also called MerTK on SK-MEL-5
T1 sequence: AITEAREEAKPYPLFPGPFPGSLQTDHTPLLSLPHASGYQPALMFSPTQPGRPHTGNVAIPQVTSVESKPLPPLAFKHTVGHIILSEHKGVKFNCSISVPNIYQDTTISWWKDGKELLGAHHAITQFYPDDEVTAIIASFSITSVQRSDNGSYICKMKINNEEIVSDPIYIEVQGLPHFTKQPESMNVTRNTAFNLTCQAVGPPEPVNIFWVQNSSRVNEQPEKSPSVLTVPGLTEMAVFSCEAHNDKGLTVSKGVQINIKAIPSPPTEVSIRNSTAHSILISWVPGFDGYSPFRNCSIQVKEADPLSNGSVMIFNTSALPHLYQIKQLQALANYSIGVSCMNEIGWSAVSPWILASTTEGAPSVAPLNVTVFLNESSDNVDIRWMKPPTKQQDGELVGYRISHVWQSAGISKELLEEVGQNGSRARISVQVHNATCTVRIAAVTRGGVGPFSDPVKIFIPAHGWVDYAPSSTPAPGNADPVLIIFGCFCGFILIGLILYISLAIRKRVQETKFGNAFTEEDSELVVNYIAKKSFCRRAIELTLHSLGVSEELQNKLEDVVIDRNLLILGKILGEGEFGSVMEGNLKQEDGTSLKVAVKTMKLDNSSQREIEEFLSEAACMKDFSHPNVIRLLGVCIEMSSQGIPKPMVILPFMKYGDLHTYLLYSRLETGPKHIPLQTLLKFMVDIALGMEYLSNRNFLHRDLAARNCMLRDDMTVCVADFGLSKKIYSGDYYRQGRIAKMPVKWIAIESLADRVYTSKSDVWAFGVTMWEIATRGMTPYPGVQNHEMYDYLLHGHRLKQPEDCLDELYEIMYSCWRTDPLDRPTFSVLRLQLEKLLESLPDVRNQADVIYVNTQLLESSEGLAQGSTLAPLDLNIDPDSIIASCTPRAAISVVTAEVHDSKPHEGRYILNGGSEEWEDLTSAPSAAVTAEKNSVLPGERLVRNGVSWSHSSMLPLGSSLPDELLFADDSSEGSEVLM


target: T1, human MerTK endogenously expressed on …; assay: flow cytometry on SK-MEL-5 cells, Prism fit
Procedure: To determine whether recombinant anti-human MerTK antibodies of the present disclosure bind to human MerTK endogenously expressed on SK-MEL-5 cells and to CHO cells overexpressing mouse MerTK (CHO-muMerTK OE cells), the following experiments were performed. SK-MEL-5 cells and CHO-muMerTK OE cells were plated at 40,000 cells/well. Anti-MerTK antibodies were titrated to a final concentration range of between 66.6 nM to 4 pM and then added to the cells. After 30 min on ice, cells were washed and then stained with APC-conjugated mouse anti-human Kappa antibody (Southern Biotech Cat #9230-11, Birmingham, Ala.) and a viability die (Life Technologies) in the presence of Fc block solution on ice for 30 minutes, and then washed twice with cold FACS buffer (2% FBS in PBS). Cells were fixed with 4% paraformaldehyde in PBS. Stained cells were acquired on a BD FACS Canto II cytometer and the mean fluorescence intensity (MFI) was calculated with FlowJo software and K value was calculated with Prism software. […] A lower Kd value reflects higher binding of antibody to cells.

Binder | Kd [nM]
MTK-28 (antibody, human IgG1, V domains shown) VH: QIQLVQSGPELKKPGETVKISCKASGYTFTTYGMSWVKQAPGKGLKWMGWINTYSGVPTYADDFKGRFAFSLETSASTAYLQINTLKNEDTTTYFCARFLRYYYFDYWGQGTTLTVSS VL: QIVLSQSPVILSASPGEKVTMTCRASSSVTYMHWYQQQPGSSPKPWIYATSNLASGVPARFSGSGSGTSYSLTISRVETEDAATYYCHQWSGNPTFGGGTKLEIN | 0.52
MTK-04 (antibody, human IgG1, V domains shown) VH: QIQLVQSGPELKKPGETVKISCKASGYTFTNYGMNWVKQAPGKGLKCMGWINTYTGEPTYADDFKGRFAFSLETSASTAYLQINNLKNEDMATYFCAKYDNYAWFAYWGQGTLVTVSA VL: QIVLSQSPAFLSASPGEKVTMTCRASSSVSYMHWYLQKPGSSPKPWIYATSNLASGVPVRFSGSGSGTSYSLTISRVEAEDAATYYCQQWSSNPRTFGGGTKLEIR | 0.037
MTK-32 (antibody, human IgG1, V domains shown) VH: QIQLVQSGPELKKPGETVKISCKASGYTFTSYGMSWVHQAPGKGLKWLGWINTYSGVPTYADDFRGRFAFSLDTSVSTASLEINNLQNEDTATYFCAREDNWAWFAYWGQGTLVTVST VL: QIVLSQSPAILSASPGEKVTMTCRATSSVGYMHWYQRKPGSSPKPWIYATSNLASGVPARFSGSGSGTSYSLTISRVEAEDAATYYCQQWSSNPRTFGGGTKLEIK | 0.4
MTK-08 (antibody, human IgG1, V domains shown) VH: QIQLVQSGPELKKPGETVKISCKASGYTFTNYGMNWVKQAPGKGLKWMGWINTYTGEPTYADDFKGRFAFSLETSASTAYLQINNLKNEDTATYFCAREVRYWYFDVWGAGTTVTVSS VL: QIVLSQSPAILSASPGEKVTMTCRATSSVSYMHWFQQKPGSSPKPWIYATSNLASGVPARFSGSGSGTSYSLTISRVEAEDAAAYYCQHWSGNPRTFGGGTKLEIK | 0.079

Binders with a lower Kd, results first:

Kd [nM] | Binder
0.005 | MTK-06 (antibody, human IgG1, V domains shown) VH: QIQLVQSGPELKKPGETVKISCKASGYTFTNYGMNWVKQAPGKGLKWMGWINTNTGEPTYAEEFKGRFAFSLETSASTAYLQINNLKNEDTATYFCARYYNYWYFDVWGAGTTVTVSS VL: QIVLSQSPAILSASPGEKVTMTCRASSSVSYMHWYQQKPGSSPKPWIYATSNLASGVPARFSGSGSGTSYSLTISRVEAEDAATYYCQQWSSKPPTFGGGTKLEIK
0.021 | MTK-14 (antibody, human IgG1, V domains shown) VH: QIQLVQSGPELKKPGETVKISCKASGYTFTNYGMNWVKQAPGKDLQWMGWINTYTGEPTYADDFTGRFAFSLETSASTAYLQINNLKNEDTATYFCAKGGHYAWFAYWGQGTLVTVSA VL: QIVLSQSPAILSASPGEKVTMTCRSSSSVSYMHWYQQKPGSSPKPWIYATSNLASGVPGRFSGSGSGTSYSLTISRVEAEDAATYYCQQWGSNPRTFGGGTKLEIK
0.024 | MTK-02 (antibody, human IgG1, V domains shown) VH: QIQLVQSGPELKQPGETVKISCKASGYTFTDYGVNWVKQAPGKGLKWMGWINTYSGEPTYAGDFKGRFAFSLESSASTAFLQINNLKNEDMATYFCARRVRYWYFDVWGAGTSVTVSS VL: QIVLSQSPAILSASPGERVTMTCRANSSVSYMHWYQQKPGSSPKPWIYATSNLASGVPARFSASGSGTSYSLTVSRVEAEDAATYYCQQWGSNPFTFGSGTKLEIK
